Results published in patent EP4796681A2 (Daiichi Sankyo Co., Ltd., dated 2026).

How the values were obtained:
[1] = biological target: T1, Chymotrypsin (Worthington Biochemical Corp.) (Bos taurus (Bovine), UniProt P00766 1-13; P00766 16-146; P00766 149-245); experiment: ELISA, chymotrypsin coated on plate, detection by HRP-conjugated S-Tag antibody
[2] = biological target: T1, Chymotrypsin (Worthington Biochemical …); experiment: cell-based or functional assay

EC50 [1] [nM] | IC50 of chymotrypsin inhibitory activity (Pierce Quantitative Protease Assay Kit) [2] [nM] | Binder
17.8 | 374 | α-chymotrypsin-binding peptide No. 6 (SPINK2 mutant) (designed binder, Expressed in E. coli Origami B (DE3) as thioredoxin/His fusion, thioredoxin tag cleaved by thrombin; mainly monomer; also called clone 6; not shown: vector-derived N-terminal residues left after thrombin cleavage of the pET 32a (varied) fusion, including the S-tag used) DPQFGLFSKYRTPNCRRWLLPWCTYKYKPVCGSDMSTYANECTLCMKIREGGHNIKIIRNGPC
18.3 | 815 | α-chymotrypsin-binding peptide No. 2 (SPINK2 mutant) (designed binder, Expressed in E. coli Origami B (DE3) as thioredoxin/His fusion, thioredoxin tag cleaved by thrombin; mainly monomer; also called clone 2; not shown: vector-derived N-terminal residues left after thrombin cleavage of the pET 32a (varied) fusion, including the S-tag used) DPQFGLFSKYRTPNCMRHRRHFCTMVYKPVCGSDMSTYANECTLCMKIREGGHNIKIIRNGPC
